Test results published in US20190045761.

Tests used:
[1] = tested on: FAH 5.3 TALEN right (3') (synthetic construct); assay: cell_activity; details: TALEN pair with HDR oligo (HindIII) in RG-KO pig fibroblasts, 16 bp spacer
[2] = tested on: FAH 5.3 TALEN left (5') (synthetic construct); assay: cell_activity; details: TALEN pair with HDR oligo (HindIII) in RG-KO pig fibroblasts, 16 bp spacer

| Sequence | activity (% of colonies positive) [1] | activity (% of colonies positive) [2] |
| --- | --- | --- |
| GGTATGTCCCAGACC (double strand) [FAH 5.3 TALEN 3' half-site] | 5.3 | – |
| TCAGGGGCAAGGAGACT (double strand) [FAH 5.3 TALEN 5' half-site] | – | 5.3 |
